Experiment in all cases: cell-based or functional assay
The target of assay [1] is Env of HIV-1 strain 231965.c1 (HIV-1).
For assay [2], the target named is Env of HIV-1 strain 250-4 (HIV-1).
The target in assay [3] is Env of HIV-1 strain 251-18 (HIV-1).
Assay [4] has as its target Env of HIV-1 strain 3016.v5.c45 (HIV-1).
Assay [5] concerns the target Env of HIV-1 strain 3365.v2.c20 (HIV-1).
Assay [6] has as its target Env of HIV-1 strain 3415.v1.c1 (HIV-1).
Assay [7] deals with Env of HIV-1 strain Du172.17 (HIV-1).
Assay [8] concerns the target Env of HIV-1 strain H086.8 (HIV-1).
The target in assay [9] is Env of HIV-1 strain PVO.4 (HIV-1).
In assay [10] the target is Env of HIV-1 strain R1166.c1 (HIV-1).
Assay [11] addresses Env of HIV-1 strain REJO4541.67 (HIV-1).
Assay [12] has as its target Env of HIV-1 strain X1254_c3 (HIV-1).
Assay [13] deals with Env of HIV-1 strain YU2.DG (HIV-1).
The target of assay [14] is Env of HIV-1 strain ZM109F.PB4 (HIV-1).
For assay [15], the target named is Env of HIV-1 strain ZM53M.PB12 (HIV-1).
In assay [16] the target is Env of MuLV.

Where a chain is given by its changes, count along the chain named. Bounds are passed on as bounds.

Among the data in US20180171001A1 are neutralization IC50 values, retold here.

B1: γ15κ11 (antibody, V domains shown)
VH: QIHLVQSGTEVKKPGSSVTVSCKAYGVNTFGLYAVNWVRQAPGQSLEYIGQIWRWKSSASHHFRGRVIISAVDLTGSSPPISSLEIKNLTSDDTAVYFCTTASTYDKWSGLHHDGVMAFSSWGQGTLISVSA
VL: DIQMTQSPSTLSASVGGTVRISCRASQSITGGWLAWYHQRPGKAPRLLIYRGSRLLGGVPSRFSGSAAGTDFTLTIANLQAEDFGTFYCQQYDTYPGTFGQGTKVEVKR
As to B1, the neutralization IC50 was 5.1 µg/mL in assay [1]; greater than 15 µg/mL in assay [2]; greater than 15 µg/mL in assay [3]; 1.32 µg/mL in assay [4]; greater than 15 µg/mL in assay [5]; greater than 15 µg/mL in assay [6]. Moreover, the neutralization IC50 was greater than 15 µg/mL in assay [7]; greater than 15 µg/mL in assay [8]; 6.7 µg/mL in assay [9]; 9.81 µg/mL in [10]; greater than 15 µg/mL in assay [11]; 13.7 µg/mL in [12]. Moreover, the neutralization IC50 is 4.12 µg/mL in assay [13], greater than 15 µg/mL in assay [14], greater than 15 µg/mL in [15] and greater than 30 µg/mL in assay [16].

B2: γ46κ11 (antibody, V domains shown)
VH: B1 VH with S45G, I68L, L89V, A102T, M117V
VL: B1 VL
For the molecule B2, the neutralization IC50 was 2.95 µg/mL in [1]; greater than 15 µg/mL in assay [2]; greater than 15 µg/mL in assay [3]; 1.93 µg/mL in [4]; greater than 15 µg/mL in [5]; greater than 15 µg/mL in assay [6]. For the same molecule, the neutralization IC50 in assay [7] was greater than 15 µg/mL; in assay [8], greater than 15 µg/mL; in assay [9] it was 2.92 µg/mL; in [10], 3.39 µg/mL; in assay [11], greater than 15 µg/mL; in [12], 5.68 µg/mL. In addition, the neutralization IC50 in assay [13] was 2.1 µg/mL; in assay [14], greater than 15 µg/mL; in assay [15], greater than 15 µg/mL; in assay [16] it was greater than 30 µg/mL.

B3: γ22κ11 (antibody, V domains shown)
VH: B1 VH with I68L, S77P, A102T
VL: B1 VL
As for B3, the neutralization IC50 in [1], in [2], in assay [3], in [4], in assay [5] and in [6] was greater than 15 µg/mL in each case. In addition, the neutralization IC50 in assay [7], in [8], in [9], in assay [10], in [11] and in assay [12] was greater than 15 µg/mL throughout. For the same molecule, the neutralization IC50 in [13] was greater than 15 µg/mL; in [14], greater than 15 µg/mL; in assay [15], greater than 15 µg/mL; in assay [16], greater than 30 µg/mL.

B4: γ20κ11 (antibody, V domains shown)
VH: B1 VH with T19A, H62D, T101A, A102T, Y105P, K107Y
VL: B1 VL
For the molecule B4, the neutralization IC50 in assay [1], in assay [2], in [3], in assay [4], in assay [5] and in [6] was greater than 15 µg/mL in each case. Also, the neutralization IC50 in assay [7] is greater than 15 µg/mL; in assay [8] it was greater than 15 µg/mL; in [9], greater than 15 µg/mL; in assay [10], 20.2 µg/mL; in assay [11] it was greater than 15 µg/mL; in assay [12] it was 7.5 µg/mL. Besides, the neutralization IC50 in assay [13] was greater than 15 µg/mL; in [14], greater than 15 µg/mL; in [15], greater than 15 µg/mL; in assay [16], greater than 30 µg/mL.

B5: γ3κ18 (antibody, V domains shown)
VH: QIHLVQSGTEVKKPGSSVTVSCKAYGVNTFGLYAVSWVRQAPGQRLEYIGQIRRWKSSASHHFRGRVTVSAVDPTGSSPPISSLEIRDLTTDDTAVYFCTTTSTSDYWSGLHNERGTAFSSWGQGTLISVSA
VL: B1 VL with G17D, T70A
For B5, the neutralization IC50 is 0.163 µg/mL in assay [1]; greater than 15 µg/mL in assay [2]; greater than 15 µg/mL in [3]; 0.057 µg/mL in assay [4]; greater than 15 µg/mL in assay [5]; greater than 15 µg/mL in [6]. In addition, the neutralization IC50 in assay [7] stood at 11.5 µg/mL; in assay [8] it was 0.209 µg/mL; in assay [9] it was 0.028 µg/mL; in assay [10], 0.578 µg/mL; in assay [11], 0.049 µg/mL; in [12], 0.616 µg/mL. Also, the neutralization IC50 in assay [13] was 0.07 µg/mL; in assay [14], greater than 15 µg/mL; in assay [15] it was greater than 15 µg/mL; in assay [16], greater than 30 µg/mL.

B6: γ44κ11 (antibody, V domains shown)
VH: B1 VH with G26E, I68L, L89V, A102T, Y105H
VL: B1 VL
With B6, the neutralization IC50 in [1], in assay [2], in assay [3], in assay [4], in assay [5] and in assay [6] was greater than 15 µg/mL throughout. Further, the neutralization IC50 in [7], in assay [8], in assay [9], in assay [10], in assay [11] and in [12] was greater than 15 µg/mL in each case. Besides, the neutralization IC50 in assay [13] is greater than 15 µg/mL; in assay [14], greater than 15 µg/mL; in [15] it was greater than 15 µg/mL; in assay [16] it was greater than 19 µg/mL.

B7: γ59κ11 (antibody, V domains shown)
VH: B1 VH with S45G, I68L, L89V, A102T, K107E, G110D
VL: B1 VL
As to B7, the neutralization IC50 in [1], in assay [2], in assay [3], in assay [4], in [5] and in assay [6] was greater than 15 µg/mL throughout. Further, the neutralization IC50 in assay [7] is greater than 15 µg/mL; in assay [8], greater than 15 µg/mL; in assay [9] it was greater than 15 µg/mL; in assay [10] it was 12.6 µg/mL; in assay [11], 1.57 µg/mL; in assay [12], 4.67 µg/mL. In addition, the neutralization IC50 in assay [13] is 6.91 µg/mL; in [14] it was greater than 15 µg/mL; in assay [15], greater than 15 µg/mL; in assay [16] it was greater than 30 µg/mL.

B8: γ23κ11 (antibody, V domains shown)
VH: B1 VH with A102T, Y105S, K107Y
VL: B1 VL
As to B8, the neutralization IC50 in assay [1] was 0.543 µg/mL; in assay [2], greater than 15 µg/mL; in assay [3], 2.49 µg/mL; in [4], 0.159 µg/mL; in assay [5] it was greater than 15 µg/mL; in [6], greater than 15 µg/mL. Moreover, the neutralization IC50 in [7] was 11.3 µg/mL; in assay [8], greater than 15 µg/mL; in assay [9], 0.103 µg/mL; in [10], 1.61 µg/mL; in assay [11] it was 0.14 µg/mL; in [12], 1.7 µg/mL. The neutralization IC50 in [13] was 0.34 µg/mL; in assay [14], greater than 15 µg/mL; in assay [15], greater than 15 µg/mL; in assay [16], greater than 30 µg/mL.

B9: γ52κ11 (antibody, V domains shown)
VH: B1 VH with I68L, A102T, K107R
VL: B1 VL
Turning to B9, the neutralization IC50 is 0.298 µg/mL in assay [1]; greater than 15 µg/mL in [2]; 0.647 µg/mL in assay [3]; 0.161 µg/mL in [4]; greater than 15 µg/mL in [5]; greater than 15 µg/mL in assay [6]. Besides, the neutralization IC50 in [7] is greater than 15 µg/mL; in assay [8] it was 1.64 µg/mL; in assay [9], 0.103 µg/mL; in assay [10], 1.16 µg/mL; in [11] it was 3.47 µg/mL; in [12], 2.42 µg/mL. Moreover, the neutralization IC50 in assay [13] is 0.298 µg/mL; in assay [14] it was greater than 15 µg/mL; in assay [15], greater than 15 µg/mL; in assay [16], greater than 30 µg/mL.
